{"source": "patent US20220288204A1", "about": "“DOSAGE AND ADMINISTRATION OF ANTI-ERBB3 (HER3) MONOCLONAL ANTIBODIES TO TREAT TUMORS ASSOCIATED WITH NEUREGULIN 1 (NRG1) GENE FUSIONS” (ELEVATION ONCOLOGY, INC., priority 2021, published 2022)", "key": {"OV-10-0050 PDX tumors": {"system": "OV-10-0050 PDX tumors", "assay": "HGSOC ovarian PDX model efficacy (CLU-NRG1)", "format": "in vivo, mice", "design": "average tumor volume at the time of the last treatment: unit not given beside the values", "conditions": "afatinib 5 mg/kg once daily, day 27", "source_text": "IHC characterization of the OV-10-0050 PDX model (FIG. 6A). H&E staining, WT1, and TP53 IHC (left to right). […] (FIG. 6B). Treatment was terminated on day 27 and animals were monitored for tumor regrowth until tumors reached maximum allowable size or until 90 days after treatment initiation. Results represent the mean tumor volume ±SEM. A zoom-in view on tumor volumes during the last 40 days of monitoring of seribantumab-treated groups (right). […] Change in the volume of individual tumors (day 27 vs. volume at start of treatment) (FIG. 6C).\nCrushed PDX tumor samples were mixed with Matrigel (50%) and injected into the subcutaneous flank of 6-week-old female NSG (LUAD-0061AS3) or Balb/c nude (OV-10-0050) mice. When tumors reached approximately 100-150 mm3, mice were randomly assigned to groups of 5-8 and treatment was commenced. There were 2 mice per group with bilateral flank tumors for the protein phosphorylation/expression study in the LUAD-0061AS3 PDX model. Drugs were administered once, and then tumors were collected at 2, 24, and 168 hours posttreatment. Afatinib was administered by oral gavage once daily as a suspension (in 0.5% methylcellulose-0.4% Tween-80) on a 5-days-on and 2-days-off schedule. […] Mice were observed daily throughout the treatment period for signs of morbidity and mortality. Tumor length and width and animal weights were measured twice weekly. Tumor volume was calculated using the empirical formula V=length×width 2×0.52. The percentage change in tumor volume of each tumor was calculated using the formula [(V2−V1)/V1)]×100, where V1 is the starting tumor volume and V2 is the final tumor volume.\nRT-PCR confirmed the presence of the CLU-NRG1 fusion. Xenograft tissue morphology and IHC markers (positive for WT1 and strong nuclear staining for TP53) were consistent with HGSOC histology (FIG. 6A; Kobel M, et al., Int. J. Gynecol. Pathol. 2016; 35:430-41). […] As with the above experiments in the NSCLC PDX model, the doses of seribantumab used here were lower than the dose that is used in patients. Treatment was terminated at day 27 and tumor growth was monitored for an additional 63 days (90 days after initiation of treatment or once tumors reached the maximum allowable size). The tumor volume as a function of time is illustrated in FIG. 6B, and the AUC was computed for each group to compare tumor volumes between groups at the last date of treatment. […] Forty-one days after treatment began, mice bearing vehicle- and afatinib-treated tumors were sacrificed because of the high tumor burden."}, "MDA-MB-175-VII cells": {"system": "MDA-MB-175-VII cells", "assay": "Caspase 3/7 enzymatic activity in cell homogenates (apoptosis)", "format": "cell-based, human", "method": "(§1) MCF-7 cells were treated with the indicated concentrations of NRG1-b1 for 10 minutes, and then cell extracts were prepared and subjected to Western blotting for the indicated phosphorylated (p) or total (t) proteins (FIG. 2A). […] Data were analyzed by nonlinear regression using GraphPad Prism 8. There were four replicates of each condition and data represent the mean±SD. […] Cells were counted on the days indicated on the graph. Results represent the mean±SD of duplicates of each condition in one representative experiment. MDA-MB-175-VII (FIG. 2D) and LUAD-0061AS3 (FIG. 2E) cells were treated with the indicated concentrations of inhibitors for 48 hours, and then caspase 3/7 enzymatic activity was measured in cell homogenates. Carfilzomib (20S proteasome inhibitor) was used as a positive control for apoptosis. Results are the mean±SEM of three independent experiments in which each condition was assayed in three replicate determinations. The absence of an error bar for any data point indicates an error value too small to be represented on the scale used.\n(§2) As a positive control for activation of caspase 3/7, 1 μmol/L carfilzomib was used."}, "LUAD-0061AS3 cells": {"system": "LUAD-0061AS3 cells", "assay": "Caspase 3/7 enzymatic activity in cell homogenates (apoptosis)", "format": "cell-based, human", "method": "as §1, §2"}, "human ERBB3 (HER3)": {"molecular_target": "human ERBB3 (HER3) (human, UniProt P21860 20-1342)", "sequence (P21860 other isoform, or with tags, fused parts or gaps)": "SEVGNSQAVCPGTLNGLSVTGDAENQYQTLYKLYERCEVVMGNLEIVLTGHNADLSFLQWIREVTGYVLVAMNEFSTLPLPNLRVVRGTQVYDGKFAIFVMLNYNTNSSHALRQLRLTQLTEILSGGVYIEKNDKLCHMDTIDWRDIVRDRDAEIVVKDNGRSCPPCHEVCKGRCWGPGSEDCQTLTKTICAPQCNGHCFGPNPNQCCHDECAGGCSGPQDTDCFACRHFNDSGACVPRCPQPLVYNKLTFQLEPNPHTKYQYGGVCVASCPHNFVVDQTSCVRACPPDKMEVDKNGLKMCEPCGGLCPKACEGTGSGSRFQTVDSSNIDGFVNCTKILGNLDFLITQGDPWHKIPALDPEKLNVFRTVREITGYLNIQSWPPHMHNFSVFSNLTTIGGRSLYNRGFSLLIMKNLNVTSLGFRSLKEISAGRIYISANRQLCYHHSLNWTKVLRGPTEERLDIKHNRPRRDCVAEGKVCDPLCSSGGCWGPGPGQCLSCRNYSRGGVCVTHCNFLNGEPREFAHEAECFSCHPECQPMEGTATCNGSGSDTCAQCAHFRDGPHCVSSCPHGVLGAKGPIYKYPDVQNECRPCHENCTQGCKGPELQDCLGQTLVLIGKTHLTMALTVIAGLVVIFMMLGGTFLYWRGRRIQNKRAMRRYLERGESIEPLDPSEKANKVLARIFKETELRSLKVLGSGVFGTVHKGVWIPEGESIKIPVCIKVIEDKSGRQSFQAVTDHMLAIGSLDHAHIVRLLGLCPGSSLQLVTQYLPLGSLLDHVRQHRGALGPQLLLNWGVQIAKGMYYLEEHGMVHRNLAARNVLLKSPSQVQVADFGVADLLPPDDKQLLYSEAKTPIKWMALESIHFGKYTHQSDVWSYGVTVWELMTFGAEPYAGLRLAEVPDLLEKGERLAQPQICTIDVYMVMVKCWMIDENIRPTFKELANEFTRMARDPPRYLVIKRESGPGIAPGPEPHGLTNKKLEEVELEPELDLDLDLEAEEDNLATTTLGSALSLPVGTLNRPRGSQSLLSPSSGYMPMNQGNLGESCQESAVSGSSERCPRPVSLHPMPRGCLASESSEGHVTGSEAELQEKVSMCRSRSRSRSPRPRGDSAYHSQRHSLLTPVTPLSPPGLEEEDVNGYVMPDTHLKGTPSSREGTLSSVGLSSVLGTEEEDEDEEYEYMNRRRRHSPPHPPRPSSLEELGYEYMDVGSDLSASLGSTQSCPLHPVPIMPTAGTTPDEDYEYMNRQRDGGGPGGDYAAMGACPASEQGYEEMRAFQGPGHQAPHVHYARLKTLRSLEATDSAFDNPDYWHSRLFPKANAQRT", "assay": "cell-based or functional assay"}, "[1]": {"conditions": "1 μmol/L carfilzomib, positive control"}}, "data": [{"molecule": "CN(C)C/C=C/C(=O)Nc1cc2c(Nc3ccc(F)c(Cl)c3)ncnc2cc1O[C@H]1CCOC1", "note": "[afatinib]", "values": [{"measurement": "average tumor volume at the time of the last treatment", "setting": "OV-10-0050 PDX tumors", "result": "786.4±190.5"}, {"measurement": "caspase 3/7 activity", "setting": "MDA-MB-175-VII cells; 10 μmol/L, 48 hours", "result": "14.1±3.6", "unit": "fold above control"}, {"measurement": "caspase 3/7 activity", "setting": "LUAD-0061AS3 cells; highest concentration used, 48 hours", "result": "3.3±0.1", "unit": "fold above control"}]}, {"molecule": "CC(C)C[C@H](NC(=O)[C@H](CCc1ccccc1)NC(=O)CN1CCOCC1)C(=O)N[C@@H](Cc1ccccc1)C(=O)N[C@@H](CC(C)C)C(=O)[C@@]1(C)CO1", "note": "[carfilzomib]", "values": [{"measurement": "caspase 3/7 activity", "setting": "MDA-MB-175-VII cells; [1]", "result": "16.6±1.9", "unit": "fold above control"}, {"measurement": "caspase 3/7 activity", "setting": "LUAD-0061AS3 cells; [1]", "result": "5.8±1.3", "unit": "fold above control"}]}, {"molecule": "seribantumab (antibody, human IgG2, lambda, V domains shown) VH: EVQLLESGGGLVQPGGSLRLSCAASGFTFSHYVMAWVRQAPGKGLEWVSSISSSGGWTLYADSVKGRFTISRDNSKNTLYLQMNSLRAEDTAVYYCTRGLKMATIFDYWGQGTLVTVSS VL: QSALTQPASVSGSPGQSITISCTGTSSDVGSYNVVSWYQQHPGKAPKLIIYEVSQRPSGVSNRFSGSKSGNTASLTISGLQTEDEADYYCCSYAGSSIFVIFGGGTKVTVLG", "values": [{"measurement": "IC50 for growth inhibition, HBECp53 cells (nontumor, no NRG1 fusion, control), 96 h, AlamarBlue viability", "setting": "human ERBB3 (HER3)", "result": 203, "unit": "µM"}, {"measurement": "IC50 for growth inhibition, LUAD-0061AS3 cells (SLC3A2-NRG1 fusion), 96 h, AlamarBlue viability", "setting": "human ERBB3 (HER3)", "result": 1.4, "unit": "µM"}, {"measurement": "IC50 for growth inhibition, MCF-7 cells (no NRG1 fusion, control), 96 h, AlamarBlue viability", "setting": "human ERBB3 (HER3)", "result": 45.2, "unit": "µM"}, {"measurement": "IC50 for growth inhibition, MDA-MB-175-VII cells (DOC4-NRG1 fusion), 96 h, AlamarBlue viability", "setting": "human ERBB3 (HER3)", "result": 0.02, "unit": "µM"}, {"measurement": "caspase 3/7 activity, LUAD-0061AS3 cells, highest concentration used, 48 h", "setting": "human ERBB3 (HER3)", "result": 4, "unit": "fold above control"}, {"measurement": "caspase 3/7 activity, MDA-MB-175-VII cells, 10 µmol/L, 48 h", "setting": "human ERBB3 (HER3)", "result": 12.7, "unit": "fold above control"}]}]}
